Results: the supplement of paper PMC7877785
± gives the uncertainty stated by the source.

Test: self-splicing fitness, log relative to wild type (ln ratio); higher = more splicing; Tetrahymena group I intron in knt gene, E. coli kanamycin selection, DiMSum; sequences stand for … in CUCUCU…GGAGGGAAAAGUUAUCAGGCAUGCACCUGGUAGCUAGUCUUUAAACCAAUAGAUUGCAUCGGUUUAAAAGGCAAGACCGUCAAAUUGCGGGAAAGGGGUCAACAGCCGUUCAGUACCAAGUCUCAGGGGAAACUUUGAGAUGGCCUUGCAAAGGGUAUGGUAAUAAGCUGACGGACAUGGUCCUAACCACGCAGCCAAGUCCUAAGUCAACAGAUCUUCUGUUGAUAUGGAUGCAGUUCACAGACUAAAUGUCGGUCGGGGAAGAUGUAUUCUUCUCAUAAGAUAUAGUCGGACCUCUCCUUAAUGGGAGCUAGCGGAUGAAGUGAUGCAACACUGGAGCCGCUGGGAACUAAUUUGUAUGCGAAAGUAUAUUGAUUAGUUUUGGAGUACUCGUGGUCG
Method in brief: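 Fitness was computed with DiMSum as the error-weighted combination of replicate fold changes, kanamycin versus none, each normalised to wild type. The library randomised all eight intron nucleotides of the P1ex region, with the intron placed in the knt kanamycin-resistance gene on pET-22b(+) in E. coli BL21(DE3). Six replicate transformations were grown overnight at 37°C or 30°C on LB agar with or without 25 μg/mL kanamycin, plus 100 μg/mL carbenicillin, 50 μM IPTG and 0.2% rhamnose. Pooled colonies were amplicon-sequenced on an Illumina HiSeq 2500.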

Sequence | self-splicing fitness (ln) (30 °C) | self-splicing fitness (ln) (37 °C)
UGUAAGCAAUAUUACGCUAA | -2.73 ± 0.21 | -0.75 ± 0.15
UGUAAGCAAUAUUACGCUAG | -1.82 ± 0.1 | -0.0644 ± 0.099
UGUAAGCAAUAUUACGGCCC | -2.98 ± 0.38 | –
UGUAAGCAAUAUUACGGCGG | -0.367 ± 0.098 | -0.217 ± 0.12
UGUAAGCAAUAUUACGGGGU | -3.75 ± 0.31 | -2.24 ± 0.28
UGUAAGCAAUAUUACGGUCA | -0.349 ± 0.08 | 0.113 ± 0.12
UGUAAGCAAUAUUACGGUUG | -1.14 ± 0.096 | -0.58 ± 0.1
UGUAAGCAAUAUUACGUAUA | -1.21 ± 0.097 | -0.761 ± 0.12
UGUAAGCAAUAUUACGUCAG | -1.14 ± 0.093 | -0.0311 ± 0.11
UGUAAGCAAUAUUACGUGAU | -3.5 ± 0.18 | -2.05 ± 0.17
UGUAAGCAAUAUUACGUGGA | -2.52 ± 0.25 | -1.78 ± 0.22
UGUAAGCAAUAUUACGUGUA | -1.52 ± 0.077 | -0.97 ± 0.093
UGUAAGCAAUAUUACGUUCC | -4.53 ± 0.33 | -0.21 ± 0.19
UGUCAGCAAUAUUACGAAGC | -3.79 ± 0.18 | -0.785 ± 0.17
UGUCAGCAAUAUUACGAAGU | -4.02 ± 0.46 | -1.93 ± 0.24
UGUCAGCAAUAUUACGAAUA | -0.932 ± 0.14 | -1.03 ± 0.11
UGUCAGCAAUAUUACGACGU | -1.31 ± 0.098 | -0.968 ± 0.14
UGUCAGCAAUAUUACGAGUA | -1.31 ± 0.066 | -0.775 ± 0.073
UGUCAGCAAUAUUACGAUUG | -0.341 ± 0.076 | 0.249 ± 0.12
UGUCAGCAAUAUUACGCACC | -1.28 ± 0.18 | -0.269 ± 0.21
UGUCAGCAAUAUUACGCAUA | -0.485 ± 0.06 | 0.0762 ± 0.068

Sequence | self-splicing fitness (ln) (30 °C) | self-splicing fitness (ln) (37 °C)
UGUCAGCAAUAUUACGCGAA | -0.455 ± 0.069 | 0.0551 ± 0.085
UGUCAGCAAUAUUACGCUCU | -0.884 ± 0.15 | -0.226 ± 0.13
UGUCAGCAAUAUUACGCUGA | -0.7 ± 0.23 | -0.59 ± 0.27
UGUCAGCAAUAUUACGCUUG | -1.09 ± 0.066 | -0.432 ± 0.089
UGUCAGCAAUAUUACGCUUU | -1.13 ± 0.091 | 0.276 ± 0.09
UGUCAGCAAUAUUACGGACC | -0.173 ± 0.15 | -2.33 ± 0.17
UGUCAGCAAUAUUACGGCGU | -1.95 ± 0.15 | -0.728 ± 0.13
UGUCAGCAAUAUUACGGCUC | -2.5 ± 0.15 | -0.587 ± 0.16
UGUCAGCAAUAUUACGGGAU | -3.26 ± 0.15 | -3.32 ± 0.19
UGUCAGCAAUAUUACGGGGC | -2.84 ± 0.16 | -3.02 ± 0.26
UGUCAGCAAUAUUACGGUGU | -2.06 ± 0.084 | -1.13 ± 0.1
UGUCAGCAAUAUUACGGUUC | -3.07 ± 0.2 | -1.63 ± 0.24
UGUCAGCAAUAUUACGUAGG | -0.865 ± 0.079 | -0.275 ± 0.1
UGUCAGCAAUAUUACGUAGU | -2.85 ± 0.15 | -0.865 ± 0.11
UGUCAGCAAUAUUACGUCUG | -0.693 ± 0.1 | -0.104 ± 0.11
UGUCAGCAAUAUUACGUGCG | -0.00445 ± 0.076 | 0.159 ± 0.092
UGUCAGCAAUAUUACGUUGA | -3.77 ± 0.23 | -2.47 ± 0.19
UGUCAGCAAUAUUACGUUGG | -4.09 ± 0.3 | -2.22 ± 0.25
UGUGAGCAAUAUUACGAGCU | -2.7 ± 0.26 | -2.14 ± 0.41
UGUGAGCAAUAUUACGCACG | -1.47 ± 0.21 | -1.8 ± 0.21
UGUGAGCAAUAUUACGCAUG | -1.91 ± 0.15 | -1.96 ± 0.22
